First the molecules themselves.
T1: biotin-PDGF-bb (human), P01127
T1 chain: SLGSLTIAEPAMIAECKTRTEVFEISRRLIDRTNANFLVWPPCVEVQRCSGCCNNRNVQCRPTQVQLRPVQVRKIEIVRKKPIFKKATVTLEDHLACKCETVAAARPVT

The target of one experiment is T1, biotin-PDGF-bb (human), P01127. Description: SPR; […]; Biacore S200, […] (PBS with 0.05% Tween 20, pH 7.4); […].
Regarding GCSHWLQEMFGFCKQDSDCLAGCVCEISETCG (designed binder, modifications not checked) [P-EET-2], the dissociation constant Kd is more than 20 µM.

In turn, GCFDDNPFIACKQDSDCLAGCVCWYDTWCG (designed binder, modifications not checked) [P-EET-6] yielded a dissociation constant (Kd) of more than 6.7 µM.

The target of a further experiment is biotin-VEGF-A (8-109) (human). The experiment is described as above.
Chain of biotin-VEGF-A (8-109) (human) (P15692 whole entry): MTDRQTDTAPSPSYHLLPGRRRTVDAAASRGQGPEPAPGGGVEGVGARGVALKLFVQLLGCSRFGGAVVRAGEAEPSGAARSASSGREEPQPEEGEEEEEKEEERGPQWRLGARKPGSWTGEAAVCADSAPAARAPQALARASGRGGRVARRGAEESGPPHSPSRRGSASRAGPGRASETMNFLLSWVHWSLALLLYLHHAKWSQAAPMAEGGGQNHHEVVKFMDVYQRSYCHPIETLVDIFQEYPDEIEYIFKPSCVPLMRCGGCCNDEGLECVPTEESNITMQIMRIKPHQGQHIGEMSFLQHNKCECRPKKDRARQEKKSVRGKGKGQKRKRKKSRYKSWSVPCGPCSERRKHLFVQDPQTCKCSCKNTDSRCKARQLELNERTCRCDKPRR
GCMTPWFPFTINCKQDSDCLAGCVCGPNGFCG (designed binder) [V-EET-3] came in with a Kd of more than 1.5 µM.

The molecule GCAGKSCKKWSSVHCDAGCFCQIGQQVVYIPGCV (designed binder) [V-MCH-1] registered a Kd of more than 50 µM.

VGECSQPWFINMCNMVDCCSQFGYCGKGPKYCG (designed binder) [V-AMP-1] had a dissociation constant (Kd) of more than 3.6 µM.

In turn, GCTTPWVPHHIMCKQDSDCLAGCVCGPNGFCG (designed binder) [V-EET-1] returned a dissociation constant Kd of more than 20 µM.

Molecule GCQTPWFPHQILCKQDSDCLAGCVCGPNGFCG (designed binder) [V-EET-2] registered a Kd of more than 30 µM.

Source of the values: PMC10977726.
